Data set [1] addresses T1, RacR (Escherichia coli K-12) (UniProt P76062).
T1 sequence: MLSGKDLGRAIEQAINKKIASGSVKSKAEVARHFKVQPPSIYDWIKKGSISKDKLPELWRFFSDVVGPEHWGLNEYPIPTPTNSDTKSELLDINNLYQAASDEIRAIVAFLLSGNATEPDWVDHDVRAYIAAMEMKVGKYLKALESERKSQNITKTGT
The experiment in a line: EMSA. Conditions: EMSA: 10x buffer 100 mM Tris pH 8, 10 mM EDTA, 1 M NaCl, 1 mM DTT, 50% glycerol, 0.1 mg/ml BSA (presumably 1x final), room temperature 1 h, SYBR green stain. …. A general note: In EMSA bound probe runs differently from free probe, usually more slowly.

Data set [2] concerns the target T2, RacR (Escherichia coli K-12, UniProt P76062 1-158).
T2 sequence: T1 sequence
In words: EMSA; 23.5 nM DNA, RacR up to 67.5 nM; single complex; EMSA: 10x buffer 100 mM Tris pH 8, 10 mM EDTA, 1 M NaCl, 1 mM DTT, 50% glycerol, 0.1 mg/ml BSA (presumably 1x final), room temperature 1 h, SYBR green stain. TSA: 50 mM Tris pH 8.5, 500 mM NaCl, 5% glycerol, 20-95 C. Conditions: protein: recombinant; tags: C-terminal His (pET28a); chain copies: 2; blunt.

For “TGCTTAATATTCTCCTATGCGCATTACATTAGGCAATCCCTACCCTTACTGCATTAGGCACAGCCTATTGACAATTGCGTTAGGCGTCGCCTAATATTTCTGTGTGTTTTTGGAGTTCATTCG (double strand) [123-bp racR-ydaS IGR]”, in data set [1], the binding entry was “binds”.

B1: 49-bp region upstream of ydaS (dsDNA)
DNA 1: CGAATGAACTCCAAAAACACACAGAAATATTAGGCGACGCCTAACGCAA
DNA 2: TTGCGTTAGGCGTCGCCTAATATTTCTGTGTGTTTTTGGAGTTCATTCG
Regarding B1, the binding result in data set [2] is “binds”.

Source of the values: publication PMC5700373, “Repression of YdaS Toxin Is Mediated by Transcriptional Repressor RacR in the Cryptic rac Prophage of Escherichia coli K-12”.
